The PETadex activity labels

Substrate: BHET
Settings: 120 h

| Protein | plate clearing |
| --- | --- |
| unnamed (protein) MFNIRKVAVAASVLLVSMAASAQYQKGPNPTASALERTGSFSTGSSSVSSLSASGFGGGNLYYPTASGTYGAIALCPGFTATSSSLAWLGPRLASHGFVVLIIDTNSTLDQPDSRGRQLKAATDYLVAQNSRTGSPIRGKVDTSRLAVGGHSMGGGGTLEAIRDNPSYKAGMPLAPWNTTKSFSRITVPTLIIGGSADTVAPDGSHSIPFYTSIPSSTAKIFMELRGGSHFFPQTSDPNVSRFAISWYKRWLDLDTRYSTFLNTRPSTTAVSDFRVSRTF | not clears the plate |
| unnamed (protein) MRTSRTRPLRRLAAALVLALAVVLAACDIRGPDPTEQSLTASSGPFAVGTLAVPSSAGFGGGTIYYPTNTEGPFAVISVTPGFTGTQSSIAGWGPRLASHGFVAITINTTNTFENPDTRSTEQRQALTYVVNQSNTSSSPIYGKVDGNRRGVAGHSMGGGGTLISAQADPTIRAAVPLAPWNSSTNFSNVTVPTLILACQNDSIAPVASHASPMYNSIPATTDKSYLSIAGGDHFCANSPTGGSGNVGKYGVAFFKRFLDGDTRYDPWVCGASKPAAGSAINEVRSTCPF | not clears the plate |
| unnamed (protein) MKLERSVAQATSVARGARRHEKPSSLTSVALAGVSLALFSTFAHADVLLQENFDGNLGQFSSSGSVTVTTSGARMAGSYGGTDGAITSPAISTVGFTGLSLSYTRTTTGLDSGEGGFLEYSTNGTTFTSLGSTQSASGPVTVALPAAVENQAALRLRWRVNASLSSEYYTVDTILLEGTGGTSCEPNCPPTGNPYQRGPAPTVSSLQATTGPFQTASSAVSSSAADGYGGGTIYYPTNTTEGPFAAIAVVPGYLSPQSSIQQWGPRLASWGFVVITIATNSTSDQPSSRATQLVAALDQVVSYSNSTSHAIRGKVDPARLGVAGWSMGGGGTLIALDRNATKLKAGMAFAPWNSSTNFSGVNQPALIFGCESDGTAPVSSHSLPFYNSMPSTNDKAFAEVNNGGHSCANDPRNNSGMIGRYGVSWMKRFLDNDTRFSDFLCGAPHDTAVSGSTFSRYLETCPY | clears the plate (z > 3 vs empty vector) |
| unnamed (protein) MSLVSHRAATTRACSKPQTEISRSPRNRRGAFIACVSLALVSSFAHADVLLQENFDGTLGQFTSVGSVSVTTSGARMAGSFGGTDGAITSAAISTVGFTALSLSYTRTTTGLDSGEAGILEYSTNGTTYTSLGSTQSASGPVTVGLPAAAENQAGLRLRWRVNASSSSEYYTVDSIQLQGTGGTSCEPNCPPTGNPYQRGPAPTTSTLDATSGSFTVDSVTVSSTAANGYGGGTIYYPVNTTEGPFAAIAVIPGYLSPQSSIQQWGPRLASWGFVVITITTNSGSDQPSSRATQLVAALDQVVSYSNSTTHAIRGKVDPTRLGVAGWSMGGGGSLIALDRNPTKLKAGMMFAPWNSSTNFSGVNQPALIFACESDGTAPVSSHALPFYNSIPSSNDKAFAEVNNGSHSCANDPRNNSGRLGRYGVSWMKRFLDDDTRFTEFLCGAPHSSVISGTTTYSRYLSTCPY | clears the plate (z > 3 vs empty vector) |
| unnamed (protein) MTSTTVRFAKRLIGAAALLATASVFAQSLPSDAALQATSGPLKIAQANIATPNGYGSGTVYYPTTGTNMGLVVIAPGFTEGPSFNAFWGEKLASWGFVAVNIGTKTTLDLPGPRATQMWAALQQVAALSKTSGSPFAGKVDANRLAAMGHSMGGGGTLLISQDHPTLKAAIPMAPWNLTQKNFPKITVPQLMFACQNDIIAPVSGHADRFWTSFNTTLPRVFAESKGQDHFCPTNLTSAAEKAAFGRIAIAWYKIYLDGDTQYKQVITNGNSPVFSRYLTGGL | not clears the plate |
| unnamed (protein) MDKTRLFSTLSMVTSALLFSISVSAGKPSKGGDEPAPEPAACISDTDITSAALSSTGSSGPFTVSTKDVSRWSASGFGGGTIHYPTGAGDCGPIGGIAVVPGYVSYEASIKWWGPRLASWGFVVITINTNSIYDQPDSRATQLSAALDHIINDSTVGSMVDSSRLGAIGWSMGGGGALKLATDRSEVKAIIPQAPWYSGRYGRMKTPAFMIGCENDFVAPTSNHVDVFYANASGPKMKIEVNNGDHSCANSGYNETLLGKPGIAWMQRYIHGDTRFNQFLCGNENYGSSNSVSAYDFESCP | not clears the plate |
| unnamed (protein) MKTNRRRRLGRLALAAAALLLSVAAQAQNGSAPPGPDPDPDPNPPESDNPYPRGPDPTAATLEASSGPFAVSSFRPSSTPGFGGGTIYYPTNTNEGPFAAIAVAPGFVGTESTIDWLGPRLASHGFVVITIDTNSLFDFPDSRASQLMAALDIVIAESNGSSPISGLVDPDRTGLMGHSMGGGGSLIAARDNPTIDAVIPLAPWNSSTNFSAIDVPTLIVACENDTVAPVSQHASPMYESIPSSVDKAFLEINGGDHFCANSGNANQDILGKYIVSWMKRFLDQDTRYDPFLCGPNHEADPDISEYRDTCPY | not clears the plate |
